Experimental data published in patent publication US20230287096A1 (published 2023).
Blank lines part the entries; values can stand above or below the binder they belong to.

How the values were obtained:
[1] = molecular target: Recombinant human FAM19A5 protein (human, UniProt Q7Z5A7 44-132); assay: ELISA
[2] = molecular target: T1, FAM19A5 epitope fragment F2, conjugated to BSA (human, conjugated to BSA); assay: ELISA, BSA-conjugated peptide coated on plate
T1 peptide: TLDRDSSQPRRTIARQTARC
Method: Overlapping peptide fragments (F1-F6, See FIG. 1) of the human FAM19A5 protein were synthesized and conjugated to BSA. Binding of the different anti-FAM19A5 antibodies to the BSA-conjugated peptide fragments F1-F6 was determined by ELISA assay. Briefly, FAM19A5 fragment F1-F6 (diluted to 1 μg/mL in 50 mM carbonate buffer (Biosesang) or to 20 μg/mL for high concentration analysis) were used to coat the wells of 96-well immuno plates (Thermo Scientific) (100 μL/well) overnight at 4° C. and then subsequently washed twice in 1×PBS. The plates were then blocked with the blocking buffer (100 μL/well) for 1 hour at room temperature. During the 1-hour incubation, the relevant anti-FAM19A5 antibodies were diluted to 1 μg/mL (or 20 μg/mL for high concentration analysis) in the diluent buffer. Once the plates were washed (2×using 1×PBS), the diluted anti-FAM19A5 antibodies were added to the appropriate wells, and the plates were incubated at room temperature for 1 hour. The plates were subsequently washed for a total of five times using the washing buffer. […] The absorption value of each of the wells was detected at 492 nm using a 96-well microplate reader (Molecular Device).

F2-02-BSA (#2) = molecular target: T2, F2-02-BSA (#2) (human, conjugated to BSA); assay: ELISA, BSA-conjugated mutant F2 peptide coated on plate
T2 construct: also called mutant F2 peptide fragment #2
T2 peptide: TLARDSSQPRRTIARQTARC

F2-05-BSA (#5) = molecular target: T3, F2-05-BSA (#5) (human, conjugated to BSA); assay: as above
T3 construct: also called mutant F2 peptide fragment #5
T3 peptide: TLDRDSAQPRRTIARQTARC

F2-12-BSA (#12) = molecular target: T4, F2-12-BSA (#12) (human, conjugated to BSA); assay: as above
T4 construct: also called mutant F2 peptide fragment #12
T4 peptide: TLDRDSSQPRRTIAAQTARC

F2-13-BSA (#13) = molecular target: T5, F2-13-BSA (#13) (human, conjugated to BSA); assay: as above
T5 construct: also called mutant F2 peptide fragment #13
T5 peptide: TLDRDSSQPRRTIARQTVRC

F2-04-BSA (#4) = molecular target: T6, F2-04-BSA (#4) (human, conjugated to BSA); assay: as above
T6 construct: also called mutant F2 peptide fragment #4
T6 peptide: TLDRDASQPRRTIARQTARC

F2-07-BSA (#7) = molecular target: T7, F2-07-BSA (#7) (human, conjugated to BSA); assay: as above
T7 construct: also called mutant F2 peptide fragment #7
T7 peptide: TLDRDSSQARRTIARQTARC

F2-11-BSA (#11) = molecular target: T8, F2-11-BSA (#11) (human, conjugated to BSA); assay: as above
T8 construct: also called mutant F2 peptide fragment #11
T8 peptide: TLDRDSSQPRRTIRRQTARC

F2-03-BSA (#3) = molecular target: T9, F2-03-BSA (#3) (human, conjugated to BSA); assay: as above
T9 construct: also called mutant F2 peptide fragment #3
T9 peptide: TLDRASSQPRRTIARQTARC

F2-10-BSA (#10) = molecular target: T10, F2-10-BSA (#10) (human, conjugated to BSA); assay: as above
T10 construct: also called mutant F2 peptide fragment #10
T10 peptide: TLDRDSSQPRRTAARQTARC

F2-08-BSA (#8) = molecular target: T11, F2-08-BSA (#8) (human, conjugated to BSA); assay: as above
T11 construct: also called mutant F2 peptide fragment #8
T11 peptide: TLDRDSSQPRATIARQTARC

F2-06-BSA (#6) = molecular target: T12, F2-06-BSA (#6) (human, conjugated to BSA); assay: as above
T12 construct: also called mutant F2 peptide fragment #6
T12 peptide: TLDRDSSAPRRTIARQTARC

F2-01-BSA (#1) = molecular target: T13, F2-01-BSA (#1) (human, conjugated to BSA); assay: as above
T13 construct: also called mutant F2 peptide fragment #1
T13 peptide: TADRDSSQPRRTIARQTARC

F2-09-BSA (#9) = molecular target: T14, F2-09-BSA (#9) (human, conjugated to BSA); assay: as above
T14 construct: also called mutant F2 peptide fragment #9
T14 peptide: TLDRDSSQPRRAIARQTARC

Chain of Recombinant human FAM19A5 protein (Q7Z5A7 other isoform, or with tags, fused parts or gaps): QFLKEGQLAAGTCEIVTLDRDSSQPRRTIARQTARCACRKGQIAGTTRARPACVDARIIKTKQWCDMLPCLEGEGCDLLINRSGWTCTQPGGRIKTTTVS

B2: Anti-FAM19A5 antibody 2-13 (antibody, V domains shown)
VH: AVTLDESGGGLQTPGGALSLVCKASGFTFSSHGMFWVRQTPGKGLEYVAEITNDGSGTNYGSAVKGRATISRDNGQSTVRLQLNNLRAEDTGTYFCARSTYECPGGFSCWGDTGQIDAWGHGTEVIVSS
VL: ALTQPSSVSANPGETVKITCSGGSYSYGWFQQKSPGSALVTVIYWDDERPSDIPSRFSGALSGSTNTLTITGVQADDEAVYFCGTEDISGTAGVFGAGTTLTVL
notes: Chicken-derived scFv clone converted to a full antibody; also called Anti-FAM19A5 ("2-13")
- Kd [1]: ~2770 pM

B4: Anti-FAM19A5 antibody 1-28 (antibody, V domains shown)
VH: AVTLDESGGGLQTPGGALSLVCKASGFDFSDYGMGWVRQAPGKGLEWVAAIRSDGSNPSYGSAVKGRATISKDNGRSTVRLQLNNLRAEDTATYYCAKDGNGYCALDAYRSGGYSCGVYPGSIDAWGHGTEVIVSS
VL: ALTQPSSVSANLEGTVEITCSGSGYGYGWYQQKSPGSAPVTVIYQNDKRPSDIPSRFSGSKSGSTGTLTITGVQVEDEAVYYCGSEDSSTLAGIFGAGTTLTVL
notes: also called Anti-FAM19A5 ("1-28")
- Kd [1]: 170 pM
- binding result (F2-02-BSA (#2)): binds
- binding result (F2-05-BSA (#5)): binds
- binding result (F2-12-BSA (#12)): binds
- binding result (F2-13-BSA (#13)): binds
- binding result (F2-04-BSA (#4)): binds
- binding result (F2-07-BSA (#7)): binds
- binding result (F2-11-BSA (#11)): binds
- binding result (F2-10-BSA (#10)): binds
- binding result (F2-08-BSA (#8)): binds
- binding result (F2-06-BSA (#6)): binds
- binding result (F2-01-BSA (#1)): binds
- binding result (F2-09-BSA (#9)): binds

The remaining binders from weak to strong by Kd [1], led by results:

- Kd [1]: 120 pM
- binding result [2]: binds
- binding result (F2-02-BSA (#2)): binds
- binding result (F2-05-BSA (#5)): binds
- binding result (F2-12-BSA (#12)): binds
- binding result (F2-13-BSA (#13)): binds
- binding result (F2-04-BSA (#4)): binds
- binding result (F2-07-BSA (#7)): binds
- binding result (F2-11-BSA (#11)): binds
- binding result (F2-03-BSA (#3)): binds
- binding result (F2-10-BSA (#10)): binds
- binding result (F2-08-BSA (#8)): binds
- binding result (F2-06-BSA (#6)): binds
- binding result (F2-01-BSA (#1)): binds
- binding result (F2-09-BSA (#9)): binds
B1: Anti-FAM19A5 antibody 3-2 (antibody, V domains shown)
VH: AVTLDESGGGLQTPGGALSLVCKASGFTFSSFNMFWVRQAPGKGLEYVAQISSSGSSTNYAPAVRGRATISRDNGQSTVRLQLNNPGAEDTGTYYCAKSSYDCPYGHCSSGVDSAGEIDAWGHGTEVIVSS
VL: ALTQPSSVSANPGETVKITCSGGGSYAGSYYYGWYQQKAPGSAPVTLIYESNKRPSDIPSRFSGSTSGSTATLTITGVQADDEAIYYCGSWDSSNGGIFGAGTTLTVL
notes: The text reports the results for '3-2' without separating them, so one molecule is written; Only the variable domains are tied to the name; also called h3-2; m3-2

- Kd [1]: 100 pM
B3: Anti-FAM19A5 antibody 1-65 (antibody, V domains shown)
VH: AVTLDESGGGLQTPGGALSLVCKASGFTFSSYQMGWVRQAPGKGLEWVGVINKSGSDTSYGSAVKGRATISRDNGQSTVRLQLNNLRAEDTGTYFCAKGSASYITAATIDAWGHGTEVIVSS
VL: ALTQPSSVSANPGETVKITCSGGGSSGYGYGWYQQKSPSSAPLTVIYWNDKRPSDIPSRFSGSKSGSTHTLTITGVQAEDEAVYFCGNDDYSSDSGYVGVFGAGTTLTVL
notes: VL = 39 to 42)
